According to paper PMC3184960:

B1: c-Myc-tagged wild-type XAP2 [human] / ERα, transfected in HeLa cells [not stated] (parent)
chain 1: MADIIARLREDGIQKRVIQEGRGELPDFQDGTKATFHYRTLHSDDEGTVLDDSRARGKPMELIIGKKFKLPVWETIVCTMREGEIAQFLCDIKHVVLYPLVAKSLRNIAVGKDPLEGQRHCCGVAQMREHSSLGHADLDALQQNPQPLIFHMEMLKVESPGTYQQDPWAMTDEEKAKAVPLIHQEGNRLYREGHVKEAAAKYYDAIACLKNLQMKEQPGSPEWIQLDQQITPLLLNYCQCKLVVEEYYEVLDHCSSILNKYDDNVKAYFKRGKAHAAVWNAQEAQADFAKVLELDPALAPVVSRELRALEARIRQKDEEDKARFRGIFSH
chain 2: MTMTLHTKASGMALLHQIQGNELEPLNRPQLKIPLERPLGEVYLDSSKPAVYNYPEGAAYEFNAAAAANAQVYGQTGLPYGPGSEAAAFGSNGLGGFPPLNSVSPSPLMLLHPPPQLSPFLQPHGQQVPYYLENEPSGYTVREAGPPAFYRPNSDNRRQGGRERLASTNDKGSMAMESAKETRYCAVCNDYASGYHYGVWSCEGCKAFFKRSIQGHNDYMCPATNQCTIDKNRRKSCQACRLRKCYEVGMMKGGIRKDRRGGRMLKHKRQRDDGEGRGEVGSAGDMRAANLWPSPLMIKRSKKNSLALSLTADQMVSALLDAEPPILYSEYDPTRPFSEASMMGLLTNLADRELVHMINWAKRVPGFVDLTLHDQVHLLECAWLEILMIGLVWRSMEHPGKLLFAPNLLLDRNQGKCVEGMVEIFDMLLATSSRFRMMNLQGEEFVCLKSIILLNSGVYTFLSSTLKSLEEKDHIHRVLDKITDTLIHLMAKAGLTLQQQHQRLAQLLLILSHIRHMSNKGMEHLYSMKCKNVVPLYDLLLEMLDAHRLHAPTSRGGASVEETDQSHLATAGSTSSHSLQKYYITGEAEGFPATV

Variants of: B1
Experiment: co-immunoprecipitation (IP with ERα antibody, Western blot with c-Myc antibody, band densitometry)
Conditions: 24 h after transfection
[1] = 10 nM E2 for 1 h, parent: 1, read off a plot
[2] = DMSO (veh) for 1 h, parent: 0.9, read off a plot

ratio to parent [1] | ratio to parent [2] | Variant
0.68 | 0.85 | chain 1 MADIIARLREDGIQKRVIQEGRGELPDFQDGTKATFHYRTLHSDDEGTVLDDSRARGKPMELIIGKKFKLPVWETIVCTMREGEIAQFLCDIKHVVLYPLVAKSLRNIAVGKDPLEGQRHCCGVAQMREHSSLGHADLDALQQNPQPLIFHMEMLKVESPGTYQQDPWAMTDEEKAKAVPLIHQEGNRLYREGHVKEAAAKYYDAIACLKNLQMKEQPGSPEWIQLDQQITPLLLNYCQCKLVVEEYYEVLDHCSSILNKYDDNVKAYFKWGKAHAAVWNAQEAQADFAKVLELDPALAPVVSRELRALEARIRQKDEEDKARFRGIFSH [chain 1 R271W]
0.97 | 0.85 | chain 1 MADIIARLREDGIQKRVIQEGRGELPDFQDGTKATFHYRTLHSDDEGTMLDDSRARGKPMELIIGKKFKLPVWETIVCTMREGEIAQFLCDIKHVVLYPLVAKSLRNIAVGKDPLEGQRHCCGVAQMREHSSLGHADLDALQQNPQPLIFHMEMLKVESPGTYQQDPWAMTDEEKAKAVPLIHQEGNRLYREGHVKEAAAKYYDAIACLKNLQMKEQPGSPEWIQLDQQITPLLLNYCQCKLVVEEYYEVLDHCSSILNKYDDNVKAYFKRGKAHAAVWNAQEAQADFAKVLELDPALAPVVSRELRALEARIRQKDEEDKARFRGIFSH [chain 1 V49M]
